Test system: cocaine
Test: Plasma cocaine, benzoylecgonine and ecgonine methyl ester (LC-MS) and cocaine PK after IV cocaine post-AlbuBChE
Type: in vivo, cynomolgus monkeys
Procedure: Blood was placed into K2EDTA blood collection tubes with esterase inhibitor diisopropylfluorophosphate (DFP). Tubes were inverted several times and placed on wet ice upon collection. Samples were centrifuged at 2-8° C. within 45 minutes of collection. The resultant plasma was recovered and a single 200 μL aliquot of plasma was placed into polypropylene tubes. Plasma samples were frozen over dry ice and stored at −75±15° C.
The following outline describes the LC-MS-based assay employed for the measurement of cocaine in plasma samples. Prior to MS analysis, plasma samples, calibration standards and controls were extracted using supported liquid extraction (SLE-ISOLUTE, Biotage). Twenty-five microliters of samples (25 μL) received 150 μl of 5% Ammonium hydroxide and 25 μl internal standard solution (Cocaine-d3). After mixing and transfer to SLE plate, samples were eluted with methylene chloride and evaporated to dryness. After resuspension in 50 μl of reconstitution solution—5% ACM in 10 mM ammonium acetate in water, 10 μl was injected onto Thermo Hypercarb column at 0.5 ml/min. Mobile phase was biphasic. Mass spectrophotometric detection was performed using Api 4000, APCI positive interface and Multiple Reaction Monitoring (MRM). Plasma concentrations of cocaine, benzoylecgonine and ecgonine methyl ester were determined using this assay.
When the data permits, pharmacokinetic parameter values for cocaine and its metabolites were determined using plasma concentration-times profiles for individual animals at all the study days of cocaine administration. […] Specifically the model for non-compartmental analysis with IV bolus input for cocaine and extravascular input for the metabolites.

[1] = 1 mg/kg IM, cocaine 1 mg/kg IV 96 hr post-AlbuBChE, 20 min after cocaine
[2] = 1 mg/kg IM, cocaine 1 mg/kg IV 96 hr post-AlbuBChE, 30 min after cocaine
[3] = 1 mg/kg IM, cocaine 1 mg/kg IV 96 hr post-AlbuBChE, 40 min after cocaine
[4] = 1 mg/kg IM, cocaine 1 mg/kg IV 96 hr post-AlbuBChE, 60 min after cocaine
[5] = 1 mg/kg IM, cocaine 1 mg/kg IV 120 hr post-AlbuBChE
[6] = 1 mg/kg IM, cocaine 1 mg/kg IV 120 hr post-AlbuBChE, 5 min after cocaine
[7] = 1 mg/kg IM, cocaine 1 mg/kg IV 120 hr post-AlbuBChE, 10 min after cocaine
[8] = 1 mg/kg IM, cocaine 1 mg/kg IV 120 hr post-AlbuBChE, 15 min after cocaine
[9] = 1 mg/kg IM, cocaine 1 mg/kg IV 120 hr post-AlbuBChE, 20 min after cocaine
[10] = 1 mg/kg IM, cocaine 1 mg/kg IV 120 hr post-AlbuBChE, 30 min after cocaine
[11] = 1 mg/kg IM, cocaine 1 mg/kg IV 120 hr post-AlbuBChE, 40 min after cocaine
[12] = 1 mg/kg IM, cocaine 1 mg/kg IV 120 hr post-AlbuBChE, 60 min after cocaine
[13] = 1 mg/kg IM, cocaine 1 mg/kg IV 240 hr post-AlbuBChE
[14] = 1 mg/kg IM, cocaine 1 mg/kg IV 240 hr post-AlbuBChE, 5 min after cocaine
[15] = 1 mg/kg IM, cocaine 1 mg/kg IV 240 hr post-AlbuBChE, 10 min after cocaine
[16] = 1 mg/kg IM, cocaine 1 mg/kg IV 240 hr post-AlbuBChE, 15 min after cocaine
[17] = 1 mg/kg IM, cocaine 1 mg/kg IV 240 hr post-AlbuBChE, 20 min after cocaine
[18] = 1 mg/kg IM, cocaine 1 mg/kg IV 240 hr post-AlbuBChE, 30 min after cocaine
[19] = 1 mg/kg IM, cocaine 1 mg/kg IV 240 hr post-AlbuBChE, 40 min after cocaine
[20] = 1 mg/kg IM, cocaine 1 mg/kg IV 240 hr post-AlbuBChE, 60 min after cocaine
[21] = 5 mg/kg IM, cocaine 1 mg/kg IV 2 hr post-AlbuBChE
[22] = 5 mg/kg IM, cocaine 1 mg/kg IV 2 hr post-AlbuBChE, 5 min after cocaine
[23] = 5 mg/kg IM, cocaine 1 mg/kg IV 2 hr post-AlbuBChE, 10 min after cocaine
[24] = 5 mg/kg IM, cocaine 1 mg/kg IV 2 hr post-AlbuBChE, 15 min after cocaine
[25] = 5 mg/kg IM, cocaine 1 mg/kg IV 2 hr post-AlbuBChE, 20 min after cocaine
[26] = 5 mg/kg IM, cocaine 1 mg/kg IV 2 hr post-AlbuBChE, 30 min after cocaine
[27] = 5 mg/kg IM, cocaine 1 mg/kg IV 2 hr post-AlbuBChE, 40 min after cocaine
[28] = 5 mg/kg IM, cocaine 1 mg/kg IV 2 hr post-AlbuBChE, 60 min after cocaine
[29] = 5 mg/kg IM, cocaine 1 mg/kg IV 48 hr post-AlbuBChE
[30] = 5 mg/kg IM, cocaine 1 mg/kg IV 48 hr post-AlbuBChE, 5 min after cocaine

AlbuBChE
Ecgonine methyl ester plasma concentration (mean) [1]: 47.3 ng/mL
Mean benzoylecgonine plasma concentration [1]: 43.7 ng/mL
Mean cocaine plasma concentration [1]: 208 ng/mL
Ecgonine methyl ester plasma concentration (mean) [2]: 57.3 ng/mL
Mean benzoylecgonine plasma concentration [2]: 47.4 ng/mL
Mean cocaine plasma concentration [2]: 162 ng/mL
Ecgonine methyl ester plasma concentration (mean) [3]: 64.4 ng/mL
Mean benzoylecgonine plasma concentration [3]: 46.7 ng/mL
Mean cocaine plasma concentration [3]: 123 ng/mL
Ecgonine methyl ester plasma concentration (mean) [4]: 59.9 ng/mL
Mean benzoylecgonine plasma concentration [4]: 49.6 ng/mL
Mean cocaine plasma concentration [4]: 64.8 ng/mL
Mean benzoylecgonine AUC(0-t) [5]: 2809 ng·min/mL
Mean cocaine AUC % Extrap [5]: 22.4%
Mean cocaine AUC(0-t) [5]: 11526 ng·min/mL
Mean cocaine AUC(0-∞) [5]: 14838 ng·min/mL
Mean cocaine C0 [5]: 491 ng/mL
Mean cocaine CI [5]: 67.4 mL/min/kg
Mean cocaine Vss [5]: 2.687 L/kg
Mean cocaine t½ [5]: 28.6 min
Ecgonine methyl ester plasma concentration (mean) [6]: 42.7 ng/mL
Mean benzoylecgonine plasma concentration [6]: 37.2 ng/mL
Mean cocaine plasma concentration [6]: 356 ng/mL
Ecgonine methyl ester plasma concentration (mean) [7]: 27.4 ng/mL
Mean benzoylecgonine plasma concentration [7]: 38.9 ng/mL
Mean cocaine plasma concentration [7]: 263 ng/mL
Ecgonine methyl ester plasma concentration (mean) [8]: 37.8 ng/mL
Mean benzoylecgonine plasma concentration [8]: 42.2 ng/mL
Mean cocaine plasma concentration [8]: 233 ng/mL
Ecgonine methyl ester plasma concentration (mean) [9]: 31.8 ng/mL
Mean benzoylecgonine plasma concentration [9]: 40.2 ng/mL
Mean cocaine plasma concentration [9]: 202 ng/mL
Ecgonine methyl ester plasma concentration (mean) [10]: 104 ng/mL
Mean benzoylecgonine plasma concentration [10]: 51.3 ng/mL
Mean cocaine plasma concentration [10]: 161 ng/mL
Ecgonine methyl ester plasma concentration (mean) [11]: 68.6 ng/mL
Mean benzoylecgonine plasma concentration [11]: 50.9 ng/mL
Mean cocaine plasma concentration [11]: 141 ng/mL
Ecgonine methyl ester plasma concentration (mean) [12]: 76.8 ng/mL
Mean benzoylecgonine plasma concentration [12]: 54.4 ng/mL
Mean cocaine plasma concentration [12]: 79.7 ng/mL
Mean benzoylecgonine AUC(0-t) [13]: 3660 ng·min/mL
Mean cocaine AUC % Extrap [13]: 26.7%
Mean cocaine AUC(0-t) [13]: 14364 ng·min/mL
Mean cocaine AUC(0-∞) [13]: 19623 ng·min/mL
Mean cocaine C0 [13]: 467 ng/mL
Mean cocaine CI [13]: 51.1 mL/min/kg
Mean cocaine Vss [13]: 2.288 L/kg
Mean cocaine t½ [13]: 31.0 min
Ecgonine methyl ester plasma concentration (mean) [14]: 92.7 ng/mL
Mean benzoylecgonine plasma concentration [14]: 40.0 ng/mL
Mean cocaine plasma concentration [14]: 397 ng/mL
Ecgonine methyl ester plasma concentration (mean) [15]: 21.9 ng/mL
Mean benzoylecgonine plasma concentration [15]: 47.2 ng/mL
Mean cocaine plasma concentration [15]: 340 ng/mL
Ecgonine methyl ester plasma concentration (mean) [16]: 25.9 ng/mL
Mean benzoylecgonine plasma concentration [16]: 55.0 ng/mL
Mean cocaine plasma concentration [16]: 300 ng/mL
Ecgonine methyl ester plasma concentration (mean) [17]: 29.5 ng/mL
Mean benzoylecgonine plasma concentration [17]: 56.7 ng/mL
Mean cocaine plasma concentration [17]: 259 ng/mL
Ecgonine methyl ester plasma concentration (mean) [18]: 41.3 ng/mL
Mean benzoylecgonine plasma concentration [18]: 64.6 ng/mL
Mean cocaine plasma concentration [18]: 218 ng/mL
Ecgonine methyl ester plasma concentration (mean) [19]: 51.8 ng/mL
Mean benzoylecgonine plasma concentration [19]: 68.3 ng/mL
Mean cocaine plasma concentration [19]: 181 ng/mL
Ecgonine methyl ester plasma concentration (mean) [20]: 54.3 ng/mL
Mean benzoylecgonine plasma concentration [20]: 75.2 ng/mL
Mean cocaine plasma concentration [20]: 117 ng/mL
Mean benzoylecgonine AUC(0-t) [21]: 1405 ng·min/mL
Mean cocaine AUC(0-t) [21]: 3289 ng·min/mL
Mean cocaine C0 [21]: 271 ng/mL
Ecgonine methyl ester plasma concentration (mean) [22]: 337 ng/mL
Mean benzoylecgonine plasma concentration [22]: 22.3 ng/mL
Mean cocaine plasma concentration [22]: 145 ng/mL
Ecgonine methyl ester plasma concentration (mean) [23]: 321 ng/mL
Mean benzoylecgonine plasma concentration [23]: 23.7 ng/mL
Mean cocaine plasma concentration [23]: 77.9 ng/mL
Ecgonine methyl ester plasma concentration (mean) [24]: 363 ng/mL
Mean benzoylecgonine plasma concentration [24]: 22.0 ng/mL
Mean cocaine plasma concentration [24]: 43.5 ng/mL
Ecgonine methyl ester plasma concentration (mean) [25]: 331 ng/mL
Mean benzoylecgonine plasma concentration [25]: 22.9 ng/mL
Mean cocaine plasma concentration [25]: 12.8 ng/mL
Ecgonine methyl ester plasma concentration (mean) [26]: 266 ng/mL
Mean benzoylecgonine plasma concentration [26]: 31.1 ng/mL
Mean cocaine plasma concentration [26]: 110 ng/mL
Ecgonine methyl ester plasma concentration (mean) [27]: 308 ng/mL
Mean benzoylecgonine plasma concentration [27]: 21.3 ng/mL
Mean cocaine plasma concentration [27]: 4.96 ng/mL
Ecgonine methyl ester plasma concentration (mean) [28]: 248 ng/mL
Mean benzoylecgonine plasma concentration [28]: 20.1 ng/mL
Mean cocaine plasma concentration [28]: 2.26 ng/mL
Mean benzoylecgonine AUC(0-t) [29]: 1441 ng·min/mL
Mean cocaine AUC % Extrap [29]: 3.0%
Mean cocaine AUC(0-t) [29]: 3015 ng·min/mL
Mean cocaine AUC(0-∞) [29]: 3110 ng·min/mL
Mean cocaine C0 [29]: 177 ng/mL
Mean cocaine CI [29]: 325 mL/min/kg
Mean cocaine Vss [29]: 5.729 L/kg
Mean cocaine t½ [29]: 11.4 min
Ecgonine methyl ester plasma concentration (mean) [30]: 119 ng/mL
Mean benzoylecgonine plasma concentration [30]: 20.0 ng/mL
Mean cocaine plasma concentration [30]: 126 ng/mL

Source: patent US8541373B2, “BChE albumin fusions for the treatment of cocaine abuse” (priority 2009, dated 2013)
